What was measured:
[1] = target: α-tubulin (human (endogenous in VTC-037 GSCs)) (UniProt P68363); experiment: cellular thermal shift assay
[2] = target: β-tubulin (human (endogenous in VTC-001 and VTC-037 GSCs)) (UniProt P07437); experiment: cellular thermal shift assay

Chain of α-tubulin (human (endogenous in VTC-037 GSCs)) (P68363 whole entry): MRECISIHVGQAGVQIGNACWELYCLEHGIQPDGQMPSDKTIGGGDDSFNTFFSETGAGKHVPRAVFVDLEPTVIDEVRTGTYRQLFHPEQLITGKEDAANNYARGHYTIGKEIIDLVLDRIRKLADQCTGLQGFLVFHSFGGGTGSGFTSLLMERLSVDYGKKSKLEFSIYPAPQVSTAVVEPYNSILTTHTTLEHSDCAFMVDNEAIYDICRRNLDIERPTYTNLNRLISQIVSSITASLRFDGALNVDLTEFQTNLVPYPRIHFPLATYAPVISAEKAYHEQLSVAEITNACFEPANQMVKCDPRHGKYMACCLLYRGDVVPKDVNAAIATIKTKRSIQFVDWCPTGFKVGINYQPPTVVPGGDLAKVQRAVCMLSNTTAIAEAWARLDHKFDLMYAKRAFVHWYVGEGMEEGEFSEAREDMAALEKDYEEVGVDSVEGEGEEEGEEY

In the case of “JM2 (juxtamembrane 2), Cx43 mimetic peptide (from UniProt P17302 231-245)”, the EC50 [1] is reported as 8.4 nM and the EC50 [2] is reported as 7.9 nM.
